FireProtDB (doi:10.1021/bi034798l)

B1: SH2 domain-containing protein 1A, O60880 (parent)
chain: MDAVAVYHGKISRETGEKLLLATGLDGSYLLRDSESVPGVYCLCVLYHGYIYTYRVSQTETGSWSAETAPGVHKRYFRKIKNLISAFQKPDQGIVIPLQYPVEKKSSARSTQGTTGIREDPDVCLKAP

Variants of: B1
Conditions: Homo sapiens; pH 7.4; Thermal; CD; Phosphate buffer saline; structure 1KA6; whole UniProt chain shown

Question: With F87S as the variant, how does the Tm read?
Answer: 50.5 °C

Question: What about the “change of melting temperature, mutant - wild type (higher = more stable)” value (“change of melting temperature, mutant” for short) of the same variant?
Answer: -7.3 °C

Question: With E67D as the variant, how does the Tm read?
Answer: 44.2 °C

Question: And the “change of melting temperature, mutant” value?
Answer: -13.6 °C

Question: With L31P as the variant, how does the Tm read?
Answer: 45.6 °C

Question: And the “change of melting temperature, mutant” value?
Answer: -12.2 °C

Question: What does the source list for Y54C?
Answer: Tm: 48.2 °C; change of melting temperature, mutant - wild type (higher = more stable): -9.6 °C

Question: What does the source list for G93D?
Answer: Tm: 49.1 °C; change of melting temperature, mutant - wild type (higher = more stable): -8.7 °C
